Data on 62 sequences can be found in the supplement of paper PMC7877785.

This data set is described as follows: self-splicing fitness, log relative to wild type (ln ratio); higher = more splicing; Tetrahymena group I intron in knt gene, E. coli kanamycin selection, DiMSum; sequences stand for … in CUCUCU…GGAGGGAAAAGUUAUCAGGCAUGCACCUGGUAGCUAGUCUUUAAACCAAUAGAUUGCAUCGGUUUAAAAGGCAAGACCGUCAAAUUGCGGGAAAGGGGUCAACAGCCGUUCAGUACCAAGUCUCAGGGGAAACUUUGAGAUGGCCUUGCAAAGGGUAUGGUAAUAAGCUGACGGACAUGGUCCUAACCACGCAGCCAAGUCCUAAGUCAACAGAUCUUCUGUUGAUAUGGAUGCAGUUCACAGACUAAAUGUCGGUCGGGGAAGAUGUAUUCUUCUCAUAAGAUAUAGUCGGACCUCUCCUUAAUGGGAGCUAGCGGAUGAAGUGAUGCAACACUGGAGCCGCUGGGAACUAAUUUGUAUGCGAAAGUAUAUUGAUUAGUUUUGGAGUACUCGUGGUCG
The essentials: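 A randomised library covering all eight P1ex-region intron nucleotides was built with the intron in the knt kanamycin-resistance gene on pET-22b(+) and held in E. coli BL21(DE3). Cells were grown overnight at 37°C or 30°C on LB agar, with or without 25 μg/mL kanamycin, plus 100 μg/mL carbenicillin, 50 μM IPTG and 0.2% rhamnose, and pooled colonies were amplicon-sequenced on an Illumina HiSeq 2500. DiMSum fitness is the error-weighted combination of wild-type-normalised replicate fold changes, kanamycin versus none.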

± gives the uncertainty stated by the source.

For UACCAGCAAUAUUACGUGAG, the “self-splicing fitness (ln)” value reads like this: (30 °C) -2.27 ± 0.083; (37 °C) -1.56 ± 0.085.
For the sequence UCUCAGCAAUAUUACGUUGC, the “self-splicing fitness (ln)” value (37 °C) was -2.73 ± 0.23.
UACUAGCAAUAUUACGCUAC: under “37 °C”, the “self-splicing fitness (ln)” value is -2.01 ± 0.34.
Take UGUUAGCAAUAUUACGCAGG: the “self-splicing fitness (ln)” value was -3.96 ± 0.35 (30 °C) and -2.96 ± 0.25 (37 °C).
On to AUUUAGCAAUAUUACGAAAA, for which the “self-splicing fitness (ln)” value (30 °C) was -1.99 ± 0.26 and the “self-splicing fitness (ln)” value (37 °C) is -1.01 ± 0.23.
Turning to GUCCAGCAAUAUUACGCACC, the “self-splicing fitness (ln)” value runs as follows: (30 °C) -2 ± 0.17; (37 °C) -0.64 ± 0.17.
As for UAUGAGCAAUAUUACGAACG, the “self-splicing fitness (ln)” value (30 °C) is -2.98 ± 0.19 and the “self-splicing fitness (ln)” value (37 °C) was -1.13 ± 0.16.
For CUUGAGCAAUAUUACGUUAA, the “self-splicing fitness (ln)” value runs as follows: (30 °C) -2.47 ± 0.16; (37 °C) -2.6 ± 0.22.
Turning to GUAGAGCAAUAUUACGUAAG, the “self-splicing fitness (ln)” value is -2.29 ± 0.26 (30 °C) and -0.825 ± 0.27 (37 °C).
In the case of ACUAAGCAAUAUUACGGGAG, the “self-splicing fitness (ln)” value by setting is: (30 °C) -2.5 ± 0.11; (37 °C) -1.88 ± 0.14.
For GACAAGCAAUAUUACGACGG, the “self-splicing fitness (ln)” value is, setting by setting: (30 °C) -3.3 ± 0.2; (37 °C) -2.64 ± 0.17.
For AACGAGCAAUAUUACGUCAU, the “self-splicing fitness (ln)” value reads like this: (30 °C) -2.98 ± 0.1; (37 °C) -2.44 ± 0.13.
As to GUUUAGCAAUAUUACGUAUU, the “self-splicing fitness (ln)” value reads like this: (30 °C) -2.91 ± 0.21; (37 °C) -1.38 ± 0.17.
On the same counts, the results for GCCGAGCAAUAUUACGAACU are -2.13 ± 0.3 and -0.52 ± 0.42.
Taken in the same sequence, the figures for AGCGAGCAAUAUUACGUACC were -0.987 ± 0.18 and -0.589 ± 0.19.
Taken in the same sequence, the figures for UGGUAGCAAUAUUACGAUUA were -0.395 ± 0.055 and 0.0463 ± 0.066.
On to AAUCAGCAAUAUUACGCCCG, for which the “self-splicing fitness (ln)” value is, setting by setting: (30 °C) -0.416 ± 0.14; (37 °C) -0.489 ± 0.16.
Taken in the same sequence, the figures for UGUCAGCAAUAUUACGAUCU were -0.397 ± 0.091 and 0.0205 ± 0.1.
On to CGCCAGCAAUAUUACGGGAC, for which, under “37 °C”, the “self-splicing fitness (ln)” value is -2.48 ± 0.24.
Regarding CCGAAGCAAUAUUACGUAAC, the “self-splicing fitness (ln)” value was -4.94 ± 0.34 (30 °C) and -1.67 ± 0.2 (37 °C).
For AACGAGCAAUAUUACGAAUG, the “self-splicing fitness (ln)” value was -4.03 ± 0.28 (30 °C) and -3.18 ± 0.25 (37 °C).
For UCUGAGCAAUAUUACGUUGC, the “self-splicing fitness (ln)” value (30 °C) is -3.64 ± 0.28.
As to CCCGAGCAAUAUUACGUGUA, the “self-splicing fitness (ln)” value (30 °C) was -3.33 ± 0.2 and the “self-splicing fitness (ln)” value (37 °C) is -2.97 ± 0.32.
Taken in the same sequence, the figures for GCUUAGCAAUAUUACGAUGA were -0.547 ± 0.12 and -0.556 ± 0.12.
For UCUAAGCAAUAUUACGUUGU, the “self-splicing fitness (ln)” value (30 °C) is -4.19 ± 0.24 and the “self-splicing fitness (ln)” value (37 °C) is -1.86 ± 0.15.
Taken in the same sequence, the figures for GGGGAGCAAUAUUACGCCGU were -2.64 ± 0.33 and -0.911 ± 0.34.
In the case of GCACAGCAAUAUUACGAGAA, the “self-splicing fitness (ln)” value by setting is: (30 °C) -2.66 ± 0.25; (37 °C) -0.185 ± 0.12.
As to UAAGAGCAAUAUUACGGCAG, the “self-splicing fitness (ln)” value by setting is: (30 °C) -3.03 ± 0.18; (37 °C) -1.38 ± 0.17.
With GCCCAGCAAUAUUACGAGAC, the “self-splicing fitness (ln)” value (30 °C) was -2.15 ± 0.093 and the “self-splicing fitness (ln)” value (37 °C) was -0.787 ± 0.085.
On to AUGAAGCAAUAUUACGCUCG, for which the “self-splicing fitness (ln)” value by setting is: (30 °C) -0.0634 ± 0.1; (37 °C) 0.31 ± 0.16.
With CGUUAGCAAUAUUACGGACA, the “self-splicing fitness (ln)” value (30 °C) was -0.317 ± 0.08 and the “self-splicing fitness (ln)” value (37 °C) was found to be 0.172 ± 0.1.
In the case of GUGAAGCAAUAUUACGUCGG, the “self-splicing fitness (ln)” value runs as follows: (30 °C) -0.498 ± 0.077; (37 °C) 0.15 ± 0.1.
AUGUAGCAAUAUUACGCGAA: the “self-splicing fitness (ln)” value by setting is: (30 °C) -0.976 ± 0.088; (37 °C) -1.04 ± 0.13.
CAGGAGCAAUAUUACGCAUU: the “self-splicing fitness (ln)” value (37 °C) amounted to 0.11 ± 0.4.
In the case of AUCGAGCAAUAUUACGUGUC, the “self-splicing fitness (ln)” value is -3.76 ± 0.22 (30 °C) and -0.765 ± 0.13 (37 °C).
CUGUAGCAAUAUUACGCGUC: under “37 °C”, the “self-splicing fitness (ln)” value was -2.41 ± 0.45.
For CAGUAGCAAUAUUACGAUCA, the “self-splicing fitness (ln)” value runs as follows: (30 °C) -1.67 ± 0.24; (37 °C) -2.04 ± 0.32.
Taken in the same sequence, the figures for CAUAAGCAAUAUUACGGUAG were -1.06 ± 0.087 and -0.382 ± 0.089.
On to GCUGAGCAAUAUUACGAAAU, for which the “self-splicing fitness (ln)” value is -3.27 ± 0.2 (30 °C) and -2.43 ± 0.22 (37 °C).
In the case of CACGAGCAAUAUUACGAUGU, the “self-splicing fitness (ln)” value is -3.52 ± 0.18 (30 °C) and -3.49 ± 0.24 (37 °C).
CAAAAGCAAUAUUACGAAAU: the “self-splicing fitness (ln)” value is, setting by setting: (30 °C) -3.75 ± 0.17; (37 °C) -2.89 ± 0.23.
With GUGAAGCAAUAUUACGCUCA, the “self-splicing fitness (ln)” value (30 °C) was -1.35 ± 0.12 and the “self-splicing fitness (ln)” value (37 °C) was -1.62 ± 0.17.
On to CAUAAGCAAUAUUACGUGCC, for which the “self-splicing fitness (ln)” value was -3.1 ± 0.21 (30 °C) and -2.66 ± 0.38 (37 °C).
On the same counts, the results for AGUAAGCAAUAUUACGUUUU are -3.28 ± 0.14 and -2.19 ± 0.16.
With CUAAAGCAAUAUUACGACUG, the “self-splicing fitness (ln)” value reads like this: (30 °C) 0.0292 ± 0.098; (37 °C) 0.417 ± 0.12.
On to UGCAAGCAAUAUUACGUCCA, for which the “self-splicing fitness (ln)” value runs as follows: (30 °C) -0.254 ± 0.047; (37 °C) 0.213 ± 0.07.
On to CCCGAGCAAUAUUACGGUCU, for which the “self-splicing fitness (ln)” value is -2.83 ± 0.21 (30 °C) and -1.85 ± 0.23 (37 °C).
On to CUCAAGCAAUAUUACGGUCC, for which the “self-splicing fitness (ln)” value was -3.02 ± 0.22 (30 °C) and 0.396 ± 0.18 (37 °C).
Consider AUGUAGCAAUAUUACGUAUU, for which the “self-splicing fitness (ln)” value was -3.48 ± 0.21 (30 °C) and -1.44 ± 0.16 (37 °C).
On the same counts, the results for AGUGAGCAAUAUUACGACGG are -3.25 ± 0.28 and -0.814 ± 0.22.
Taken in the same sequence, the figures for AAUCAGCAAUAUUACGCGCU were -1.16 ± 0.075 and -0.732 ± 0.084.
On to AGCUAGCAAUAUUACGGGUG, for which the “self-splicing fitness (ln)” value by setting is: (30 °C) -1.04 ± 0.068; (37 °C) -0.416 ± 0.087.
Taken in the same sequence, the figures for AUACAGCAAUAUUACGCCCU were -0.0578 ± 0.06 and -0.247 ± 0.072.
For AACAAGCAAUAUUACGGAUG, the “self-splicing fitness (ln)” value reads like this: (30 °C) -2.4 ± 0.08; (37 °C) -2.37 ± 0.096.
On the same counts, the results for GCCCAGCAAUAUUACGAUUU are -1.07 ± 0.076 and -0.735 ± 0.1.
Regarding GUGAAGCAAUAUUACGACAU, the “self-splicing fitness (ln)” value runs as follows: (30 °C) 0.0507 ± 0.012; (37 °C) 0.246 ± 0.032.
For CUUCAGCAAUAUUACGAAUC, the “self-splicing fitness (ln)” value was -1.04 ± 0.2 (30 °C) and -1.06 ± 0.19 (37 °C).
On to CUCGAGCAAUAUUACGCCUA, for which the “self-splicing fitness (ln)” value (37 °C) was -0.858 ± 0.46.
In the case of GCUCAGCAAUAUUACGCGAC, the “self-splicing fitness (ln)” value by setting is: (30 °C) -3.49 ± 0.3; (37 °C) 0.167 ± 0.16.
As for CAGGAGCAAUAUUACGGAGC, the “self-splicing fitness (ln)” value runs as follows: (30 °C) -2.2 ± 0.39; (37 °C) -3.3 ± 0.47.
Take GAAUAGCAAUAUUACGUAAA: the “self-splicing fitness (ln)” value was -1.94 ± 0.13 (30 °C) and -2.03 ± 0.14 (37 °C).
Taken in the same sequence, the figures for ACAGAGCAAUAUUACGGUUC were -3.68 ± 0.23 and -2.16 ± 0.22.
